Data taken from IntAct's records for PubMed 29039417.

B1: BBSome complex member BBS5 (Homo sapiens), Q8N3I7 (parent)
chain: MSVLDALWEDRDVRFDLSAQQMKTRPGEVLIDCLDSIEDTKGNNGDRGRLLVTNLRILWHSLALSRVNVSVGYNCILNITTRTANSKLRGQTEALYILTKCNSTRFEFIFTNLVPGSPRLFTSVMAVHRAYETSKMYRDFKLRSALIQNKQLRLLPQEHVYDKINGVWNLSSDQGNLGTFFITNVRIVWHANMNDSFNVSIPYLQIRSIKIRDSKFGLALVIESSQQSGGYVLGFKIDPVEKLQESVKEINSLHKVYSASPIFGVDYEMEEKPQPLEALTVEQIQDDVEIDSDGHTDAFVAYFADGNKQQDREPVFSEELGLAIEKLKDGFTLQGLWEVMS
partner: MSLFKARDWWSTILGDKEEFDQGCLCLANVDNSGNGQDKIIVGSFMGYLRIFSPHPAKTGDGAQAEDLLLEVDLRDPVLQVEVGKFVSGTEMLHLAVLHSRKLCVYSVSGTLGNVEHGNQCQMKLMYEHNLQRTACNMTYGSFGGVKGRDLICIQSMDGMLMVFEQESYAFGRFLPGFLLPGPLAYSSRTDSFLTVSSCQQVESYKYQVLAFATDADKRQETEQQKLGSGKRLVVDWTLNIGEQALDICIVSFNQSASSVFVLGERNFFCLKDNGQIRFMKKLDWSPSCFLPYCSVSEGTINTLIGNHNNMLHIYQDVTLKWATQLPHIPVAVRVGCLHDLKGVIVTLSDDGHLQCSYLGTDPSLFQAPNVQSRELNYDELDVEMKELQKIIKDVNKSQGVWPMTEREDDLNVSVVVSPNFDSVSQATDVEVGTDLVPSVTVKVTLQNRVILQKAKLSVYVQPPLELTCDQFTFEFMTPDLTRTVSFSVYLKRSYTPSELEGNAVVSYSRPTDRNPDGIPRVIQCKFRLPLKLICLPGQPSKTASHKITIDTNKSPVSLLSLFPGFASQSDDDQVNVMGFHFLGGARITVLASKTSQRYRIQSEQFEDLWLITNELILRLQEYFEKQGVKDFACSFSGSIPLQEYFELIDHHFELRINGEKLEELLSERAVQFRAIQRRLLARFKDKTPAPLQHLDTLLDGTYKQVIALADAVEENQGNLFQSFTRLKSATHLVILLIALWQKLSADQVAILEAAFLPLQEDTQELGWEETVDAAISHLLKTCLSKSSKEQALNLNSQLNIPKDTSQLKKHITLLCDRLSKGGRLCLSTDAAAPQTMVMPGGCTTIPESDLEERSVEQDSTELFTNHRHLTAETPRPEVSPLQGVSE

Variants of: B1
Settings: with pthb1_human BBS9, Q3SYG4

effect of a mutation on the interaction	Variant
disrupting interaction strength	MSVLDALWEDWDVRFDLSAQQMKTRPGEVLIDCLDSIEDTKGNNGDRGRLLVTNLRILWHSLALSRVNVSVGYNCILNITTRTANSKLRGQTEALYILTKCNSTRFEFIFTNLVPGSPRLFTSVMAVHRAYETSKMYRDFKLRSALIQNKQLRLLPQEHVYDKINGVWNLSSDQGNLGTFFITNVRIVWHANMNDSFNVSIPYLQIRSIKIRDSKFGLALVIESSQQSGGYVLGFKIDPVEKLQESVKEINSLHKVYSASPIFGVDYEMEEKPQPLEALTVEQIQDDVEIDSDGHTDAFVAYFADGNKQQDREPVFSEELGLAIEKLKDGFTLQGLWEVMS [R11W]
with no effect	MSVLDALWEDKDVRFDLSAQQMKTRPGEVLIDCLDSIEDTKGNNGDRGRLLVTNLRILWHSLALSRVNVSVGYNCILNITTRTANSKLRGQTEALYILTKCNSTRFEFIFTNLVPGSPRLFTSVMAVHRAYETSKMYRDFKLRSALIQNKQLRLLPQEHVYDKINGVWNLSSDQGNLGTFFITNVRIVWHANMNDSFNVSIPYLQIRSIKIRDSKFGLALVIESSQQSGGYVLGFKIDPVEKLQESVKEINSLHKVYSASPIFGVDYEMEEKPQPLEALTVEQIQDDVEIDSDGHTDAFVAYFADGNKQQDREPVFSEELGLAIEKLKDGFTLQGLWEVMS [R11K]
disrupting interaction strength	MSVLDALWEDADVRFDLSAQQMKTRPGEVLIDCLDSIEDTKGNNGDRGRLLVTNLRILWHSLALSRVNVSVGYNCILNITTRTANSKLRGQTEALYILTKCNSTRFEFIFTNLVPGSPRLFTSVMAVHRAYETSKMYRDFKLRSALIQNKQLRLLPQEHVYDKINGVWNLSSDQGNLGTFFITNVRIVWHANMNDSFNVSIPYLQIRSIKIRDSKFGLALVIESSQQSGGYVLGFKIDPVEKLQESVKEINSLHKVYSASPIFGVDYEMEEKPQPLEALTVEQIQDDVEIDSDGHTDAFVAYFADGNKQQDREPVFSEELGLAIEKLKDGFTLQGLWEVMS [R11A]
disrupting interaction strength	MSVLDALWEDEDVRFDLSAQQMKTRPGEVLIDCLDSIEDTKGNNGDRGRLLVTNLRILWHSLALSRVNVSVGYNCILNITTRTANSKLRGQTEALYILTKCNSTRFEFIFTNLVPGSPRLFTSVMAVHRAYETSKMYRDFKLRSALIQNKQLRLLPQEHVYDKINGVWNLSSDQGNLGTFFITNVRIVWHANMNDSFNVSIPYLQIRSIKIRDSKFGLALVIESSQQSGGYVLGFKIDPVEKLQESVKEINSLHKVYSASPIFGVDYEMEEKPQPLEALTVEQIQDDVEIDSDGHTDAFVAYFADGNKQQDREPVFSEELGLAIEKLKDGFTLQGLWEVMS [R11E]
with no effect	MSVLDALWEKRDVRFDLSAQQMKTRPGEVLIDCLDSIEDTKGNNGDRGRLLVTNLRILWHSLALSRVNVSVGYNCILNITTRTANSKLRGQTEALYILTKCNSTRFEFIFTNLVPGSPRLFTSVMAVHRAYETSKMYRDFKLRSALIQNKQLRLLPQEHVYDKINGVWNLSSDQGNLGTFFITNVRIVWHANMNDSFNVSIPYLQIRSIKIRDSKFGLALVIESSQQSGGYVLGFKIDPVEKLQESVKEINSLHKVYSASPIFGVDYEMEEKPQPLEALTVEQIQDDVEIDSDGHTDAFVAYFADGNKQQDREPVFSEELGLAIEKLKDGFTLQGLWEVMS [D10K]
with no effect	MSVLDALWEERDVRFDLSAQQMKTRPGEVLIDCLDSIEDTKGNNGDRGRLLVTNLRILWHSLALSRVNVSVGYNCILNITTRTANSKLRGQTEALYILTKCNSTRFEFIFTNLVPGSPRLFTSVMAVHRAYETSKMYRDFKLRSALIQNKQLRLLPQEHVYDKINGVWNLSSDQGNLGTFFITNVRIVWHANMNDSFNVSIPYLQIRSIKIRDSKFGLALVIESSQQSGGYVLGFKIDPVEKLQESVKEINSLHKVYSASPIFGVDYEMEEKPQPLEALTVEQIQDDVEIDSDGHTDAFVAYFADGNKQQDREPVFSEELGLAIEKLKDGFTLQGLWEVMS [D10E]
with no effect	MSVLDALWEDRAVRFDLSAQQMKTRPGEVLIDCLDSIEDTKGNNGDRGRLLVTNLRILWHSLALSRVNVSVGYNCILNITTRTANSKLRGQTEALYILTKCNSTRFEFIFTNLVPGSPRLFTSVMAVHRAYETSKMYRDFKLRSALIQNKQLRLLPQEHVYDKINGVWNLSSDQGNLGTFFITNVRIVWHANMNDSFNVSIPYLQIRSIKIRDSKFGLALVIESSQQSGGYVLGFKIDPVEKLQESVKEINSLHKVYSASPIFGVDYEMEEKPQPLEALTVEQIQDDVEIDSDGHTDAFVAYFADGNKQQDREPVFSEELGLAIEKLKDGFTLQGLWEVMS [D12A]
disrupting interaction strength	MSVLDALWEDRKVRFDLSAQQMKTRPGEVLIDCLDSIEDTKGNNGDRGRLLVTNLRILWHSLALSRVNVSVGYNCILNITTRTANSKLRGQTEALYILTKCNSTRFEFIFTNLVPGSPRLFTSVMAVHRAYETSKMYRDFKLRSALIQNKQLRLLPQEHVYDKINGVWNLSSDQGNLGTFFITNVRIVWHANMNDSFNVSIPYLQIRSIKIRDSKFGLALVIESSQQSGGYVLGFKIDPVEKLQESVKEINSLHKVYSASPIFGVDYEMEEKPQPLEALTVEQIQDDVEIDSDGHTDAFVAYFADGNKQQDREPVFSEELGLAIEKLKDGFTLQGLWEVMS [D12K]
with no effect	MSVLDALWEDREVRFDLSAQQMKTRPGEVLIDCLDSIEDTKGNNGDRGRLLVTNLRILWHSLALSRVNVSVGYNCILNITTRTANSKLRGQTEALYILTKCNSTRFEFIFTNLVPGSPRLFTSVMAVHRAYETSKMYRDFKLRSALIQNKQLRLLPQEHVYDKINGVWNLSSDQGNLGTFFITNVRIVWHANMNDSFNVSIPYLQIRSIKIRDSKFGLALVIESSQQSGGYVLGFKIDPVEKLQESVKEINSLHKVYSASPIFGVDYEMEEKPQPLEALTVEQIQDDVEIDSDGHTDAFVAYFADGNKQQDREPVFSEELGLAIEKLKDGFTLQGLWEVMS [D12E]
